Our source for the ratio over background and absorbance (405 nm) values is patent WO2001072771A2.

Assay [1] concerns the target soluble IGF-1 receptor (human) (UniProt P08069). The assay can be described thus: phage ELISA. Background: In an ELISA, binding on a coated surface is turned into a signal by an enzyme label.
The target of assay [2] is soluble human insulin receptor (IR-Fc) (human) (UniProt P06213). Put plainly: phage ELISA.
Assay [3] has as its target soluble IGF-1 receptor (human) (UniProt P08069). The assay can be described thus: phage ELISA; non-fat milk blank 0.11.
In assay [4] the target is soluble human insulin receptor (IR-Fc) (human) (UniProt P06213). The assay can be described thus: phage ELISA; non-fat milk blank 0.11.
The target of assay [5] is soluble IGF-1 receptor (human) (UniProt P08069). Put plainly: phage ELISA; non-fat milk blank 0.10.
The target of assay [6] is soluble human insulin receptor (IR-Fc) (human) (UniProt P06213). The assay can be described thus: phage ELISA; non-fat milk blank 0.10.
Assay [7] deals with soluble IGF-1 receptor (human) (UniProt P08069). The assay can be described thus: phage ELISA; non-fat milk blank 0.09.
For assay [8], the target named is soluble human insulin receptor (IR-Fc) (human) (UniProt P06213). Put plainly: phage ELISA; non-fat milk blank 0.09.

Regarding LKDGFYDYFWQRLHLGS [NNRPγ-4-B11-IR], the ratio over background in assay [1] came out at 18.7; in assay [2], 1.2.
The corresponding values for RGCNDDGGKGWSDDPFYHKLSELICGG [B6Hα-1-A2-IR] are 14.6 and 1.
Consider LGYQEPFQQNFYDWFVRQVSGAENAG [H2CA-3-E8-IGFR], for which the ratio over background is 6.3 in assay [1] and 2.2 in assay [2].
On to GVRAMSFYDALVSVLGLGPSG [20E2B-1-A6-IGFR], for which the ratio over background was 18.1 in assay [1] and 1.1 in assay [2].
The corresponding values for QSPVGSSHEDFYDWFFRQVAQSGAHQ [H2CA-3-D6-IGFR] are 9 and 2.2.
GIISQSCPESFYDWFAGQVSDPWWCW [H2CA-4-G9-IGF]: the values for the ratio over background in assay [1] and in assay [2] were 9.5 and 0.6, respectively.
The corresponding values for QGGSASFYDAIDRLLRMRIGG [20E2A-4-F11-IGFR] are 18.8 and 1.3.
With FYDAIDQLVRGSARAGGTRD [R20α-3-20E2-IR], the ratio over background was 39.9 in assay [1] and 3.1 in assay [2]. The absorbance (405 nm) in assay [3] was determined as 2.15; in assay [4] it was 1.01.
Regarding CCTTEMWMDARDDPFYHKLSELVTGG [B6Hα-1-B5-IR], the ratio over background was 20.5 in assay [1] and 1 in assay [2].
On to VRGFQGGTVWPGYEWLRNAA [R20β-4-E8-IR], for which the ratio over background came out at 34.9 in assay [1] and 3.6 in assay [2]. Besides, the absorbance (405 nm) was 2 in assay [5] and 1.34 in assay [6].
Regarding RLFYCGIQALGANLGYSGCV [R20 -4-20A12-IR], the ratio over background was determined as 39.9 in assay [1] and 2.4 in assay [2].
On to SMFVAGSDRWPGYGVLADWL [F2 phage], for which the absorbance (405 nm) in assay [7] came out at 2.08; in assay [8], 1.43.
Take TFYSCLASLLTGTPQPNRGPWERCR [20C-3-G3-IGFR]: the ratio over background in assay [1] was 32.3; in assay [2] it was 1.2.
The corresponding values for RCGRELYHSTFYDWFDRQVAGRTCPS [H2CA-1-A7-IGFR] are 2.2 and 0.6.
The corresponding values for NYRRQVFNGNFYDWFDRQVFSLVTPG [H2CA-3-D8-IGFR] are 7.2 and 1.8.
For TSEVQRRSQDNFYDWFVAQVA [A6S-3-E2-IR], in that order: 24.7 and 9.8.
Consider CCLLCRFQQNFYDWFVCQGISRLRPL [H2CA-2-B4-IGFR], for which the figures for the ratio over background in assay [1] and in assay [2] were 4.1 and 1.1, respectively.
The corresponding values for HLADGQFHEKFYDWFERQISSRCNDC [H2CA-3-E11-IGFR] are 2.2 and 1.
